Experimental data taken from PMC4812828 (Nature structural & molecular biology, 2016).

Target: T1, Mcm5 (S. cerevisiae, UniProt P29496 1-775)
T1 sequence: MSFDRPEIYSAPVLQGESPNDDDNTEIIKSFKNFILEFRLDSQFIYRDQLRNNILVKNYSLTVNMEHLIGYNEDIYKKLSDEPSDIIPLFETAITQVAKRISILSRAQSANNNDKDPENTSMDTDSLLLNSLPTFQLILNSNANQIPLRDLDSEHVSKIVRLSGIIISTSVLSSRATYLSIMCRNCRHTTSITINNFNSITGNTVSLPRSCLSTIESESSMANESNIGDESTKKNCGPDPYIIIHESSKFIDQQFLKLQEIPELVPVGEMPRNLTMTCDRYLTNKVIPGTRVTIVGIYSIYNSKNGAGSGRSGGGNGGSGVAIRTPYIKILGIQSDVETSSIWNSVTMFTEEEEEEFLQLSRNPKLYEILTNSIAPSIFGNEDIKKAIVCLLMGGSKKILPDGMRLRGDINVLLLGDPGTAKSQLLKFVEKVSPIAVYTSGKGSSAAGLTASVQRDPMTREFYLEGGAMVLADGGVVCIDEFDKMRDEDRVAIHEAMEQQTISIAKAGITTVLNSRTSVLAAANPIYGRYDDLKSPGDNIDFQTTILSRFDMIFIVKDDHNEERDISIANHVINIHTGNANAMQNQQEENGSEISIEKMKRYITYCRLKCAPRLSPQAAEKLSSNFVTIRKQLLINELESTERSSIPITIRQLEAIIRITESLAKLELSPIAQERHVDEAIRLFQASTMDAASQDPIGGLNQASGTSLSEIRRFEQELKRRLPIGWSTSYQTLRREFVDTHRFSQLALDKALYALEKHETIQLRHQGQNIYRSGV
Test: cryo-EM structure

B1: Psf3 (natural protein)
chain: MGYYDIDDVLADGTEFPCKFQYDIPGLGYLENNPGRPITKNTKLSLPLWLARILAIVGGDEALVDEEPVPFVELLPPDMFSTKVMNAIKTDPVALDLHSINSHFFSLAIKWIMLFSEKELANVVSELLLQRAQELNHHASSLSIDLNADSTGKNSANTNIATSTFLLKLEEMEKEIYKKSHESYKDTKRWMFKK
B1: binds.
